# Patent US20250144213A1 (UTC THERAPEUTICS SHANGHAI, published 2025)
# Changes are numbered by the printed parent chain.
# T1: CD123-Fc recombinant protein (human, UniProt P26951 19-305)
# T1 construct: Soluble staining reagent; also called CD123-Fc protein; not shown: Fc part
# T1 sequence (looked up): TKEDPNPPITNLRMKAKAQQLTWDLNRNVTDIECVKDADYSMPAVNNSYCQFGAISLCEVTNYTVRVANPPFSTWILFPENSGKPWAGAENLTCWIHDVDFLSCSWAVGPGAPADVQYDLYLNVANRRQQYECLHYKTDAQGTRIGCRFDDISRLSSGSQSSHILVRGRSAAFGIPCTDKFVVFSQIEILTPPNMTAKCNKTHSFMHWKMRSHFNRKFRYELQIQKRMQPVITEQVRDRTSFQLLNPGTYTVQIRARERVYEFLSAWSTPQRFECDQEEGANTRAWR
# B1: anti-CD123 scFv-C23 (scFv)
# scFv: DILMTQSPSSLSASVGDRVTITCQASQDISNYLNWYQQKPGKAPKLLIYDASNLETGVPSRFSGSGSGTGFSFTISSLQPEDFATYYCQQYGNLPLTFGGGTKLEIKGGGGSGGGGSGGGGSQVQLVQSGAEVKKPGASVKVSCKASGYTFTSYGISWVRQAPGQGLEWMGWISAYNGNTNYAQKLQGRVTMTTDTSTSTAYMELRSLRSDDTAVYYCARDRIAAAEVYYYYGMDVWGQGTTVTVSS
# notes: also called C23 scFv
# B2: anti-CD123 scFv-C26 (scFv)
# scFv: QSVLTQPPSASGTPGQRVTISCSGSRSNIGSNTVSWYQQFPGTAPKLLIYLNNQRPSGVPDRFSGSKSGTSASLAISGLQSEDEAEYYCATWDDDLNGVFGGGTKLTVLGGGGSGGGGSGGGGSEVQLVESGGGLVQPGGSLRLSCAASGFTLSNFEMNWVRQAPGRGLEWVSYISATTSATSYADSVKGRFTISRDNAKNSLYLQMNSLRAEDTAVYYCARVRDGYNFGYYYYYMDVWGKGTTVTVSS
# notes: also called C26 scFv
# B3: anti-CD123 scFv-C13 (scFv)
# scFv: DVVMTQTPLSLPVTLGQPASISCRSSQGLVFSDGVTYLNWFQQRPGQSPRRLIYKVSNRDSGVPDRFSGSGSGTDFTLKISRVEAEDVGIYYCMQGTHWPHTFGQGTKLEIKGGGGSGGGGSGGGGSEVQLVESGGGLVKPGGSLRLSCAASGFTFSSYSMNWVRQAPGKGLEWVAFISHDASKKFYADSVKGRFTLSRDNSKNTLYLEMNSLGAEDTALYYCGRDRNWGFSDFWGQGTLVTVSS
# notes: also called C13 scFv
# B4: anti-CD123 scFv-C5 (scFv)
# scFv: NFMLTQPHSVSESPGKTVTLSCTRSSGSIAGSYVQWYQQRPGSSPTTVIFQDNQRPSGVPDRFSGSIDKSSNSASLTISGLKTEDEADYYCQSYDSNNQVFGGGTKLTVLGGGGSGGGGSGGGGSEVHLVESGGGVVRPGGSLRLSCAASGFTFGDYGMSWVRQAPGKGLEWVSGINWNGGRTGYADSVKGRFTISRDNAKNSLYLQMNSLRAEDTALYYCARARGSGSYFGYMDVWGKGTTVTVSS
# notes: also called C5 scFv; C5 CAR
# B5: anti-CD123 scFv-C18 (scFv)
# scFv: QSALTQPASVSGSPGQSITISCTGTSSDVGGYNYVSWYQQHPGKAPKLMIYDVSNRPSGVSNRFSGSKSGNTASLTISGLQAEDEADYYCSSYTSSSTLFVFGTGTELTVLGGGGSGGGGSGGGGSQVQLQESGPGLVKPSQTLSLTCTVSGGSISSGDYYWSWIRQSPGKGLEWIGYIHSTGTTYYNPSLKSRLTISLDTSKNQFSLKLNSVTAADTAVYYCARGGVGTIFNYWGQGTLVTVSS
# notes: also called C18 scFv
# B6: anti-CD123 scFv-C11 (scFv)
# scFv: QSVVTQPPSASGTPGQRVTISCSGSSSNIGSNYVYWYQQLPGTAPKLLIYRNNQRPSGVPDRFSGSKSGTSASLAISGLRSEDEADYYCAAWDDSLSGYVFGTGTKLTVLGGGGSGGGGSGGGGSEVQLVESGGGLVQPGRSLRLSCTASGFTFGDYAMSWVRQAPGKGLEWVGFIRSKAYGGTTEYAASVKGRFTISRDDSKSIAYLQMNSLKTEDTAVYYCTRDIGYYGSGSYSPFDYWGQGTLVTVSS
# notes: also called C11 scFv; C11 CAR
# B7: anti-CD123 scFv-C29 (scFv)
# scFv: B6 scFv with S2P, V4L, L107V, Q128H
# notes: also called C29 scFv
# B8: anti-CD123 scFv-C1 (scFv)
# scFv: QSALTQPASVSGSPGQSITISCTGTSSDIGAYNYVSWYQQHPGKAPKLIIYDVSHRPSGVSNRFSGSKSGNTASLTISGLQSEDEADYYCSSDTNNNTLVFGVGTKLTVLGGGGSGGGGSGGGGSEVHLVESGGGVVQPGRSLRLSCAASGFTFSSYGMHWVRQAPGKGLEWVAVIWYDGSNKYYADSVKGRFTISRDNSKNTLYLQMNSLRAEDTAVYYCARDRDGFFLPMYYFDYWGQGTLVTVSS
# notes: also called C1 scFv
# B9: anti-CD123 scFv-C16 (scFv)
# scFv: QSVVTQPPSASGTPGQRVTISCSGSSSNIEGNTVSWYQQFPGAAPKLLIYSNSYRASGVPDRFSGSKSGTSASLAISELQSEDEADYYCSAWDDSLNGPVFGGGTELTVLGGGGSGGGGSGGGGSQVQLQESGGGLVQPGGSLRLSCAASGFTFSSYSMNWVRQAPGKGLEWVSYISSSSSTIYYADSVKGRFTISRDNAKNSLYLQMNSLRAEDTAVYYCARDIYGDWDYYYYGMDVWGQGTTVTVSS
# notes: also called C16 scFv
# B10: anti-CD123 scFv-C19 (scFv)
# scFv: DIRMTQSPSSLSASVGDRVTITCRASQDIRHDLGWYQQKPGKAPSLLMYATSTLQSGVPSRFSGSGSGTHFTLTISSLKPEDSATYYCLQDGDYPLTFGGGTKLEIKGGGGSGGGGSGGGGSQVQLVQSGGGVVQPGRSLRLSCAASGFTFSSYGMHWVRQAPGKGLEWVAVISYDGSNKYYADSVKGRFTISRDNSKNTLYLQMNSLRAEDTAVYYCAKDPSLIQYYYYGMDVWGQGTMVTVSS
# notes: also called C19 scFv
# B11: anti-CD123 scFv-C4 (scFv)
# scFv: QSALTQPPSASGTPGQRVTISCSGSSSNIGSNYVNWYQQLPGTAPKLLIYRNNQRPSGVPDRFSGSKSGTSASLAISGLRSEDEADYYCAAWDDSLSGHGVFGTGTELTVLGGGGSGGGGSGGGGSQVQLVQSGPEVKKPGASVKVSCKASGYDFIRYYMNWVRQAPGQGPEWMGAIDPSDGDTTYGQKFQGRVTLTRDTFTSTVYMELSSLRSEDTAVYYCARDWELTNSYGLDVWGQGTTVTVSS
# notes: also called C4 scFv
# B12: anti-CD123 scFv-C24 (scFv)
# scFv: DIQMTQSPSSLSASVGDRVTITCRASQSISSYLNWYQQKPGKAPKLLIHAASSLQSGVPSKFSGSGSGTDFTLTISSLQPEDFATYYCLQYKTYPYTFGPGTKVEIKGGGGSGGGGSGGGGSQVQLVQSGAEVKKPGSSVKVSCKASGGTFSSYAISWVRQAPGQGLEWMGGIIPIFGTANYAQKFQGRVTITADESTSTAYMELSSLRSEDTAVYYCARDSPSGSTNYYYYYMDVWGKGTTVTVSS
# notes: also called C24 scFv
# B13: anti-CD123 scFv-C10 (scFv)
# scFv: SYELTQPPSVSVAPGKTARITCGGNNIGSKSVHWYQQKPGQAPVLVVYDDSDRPSGIPERFSGSNSGNTATLTISRVEAGDEADYYCQVWDSSSDHWVFGGGTKLTVLGGGGSGGGGSGGGGSQVQLVQSGAEVKKPGSSVKVSCKASGGTFSSYAISWVRQAPGQGLEWMGGIIPIFGTANYAQKFQGRVTITADESTSTAYMELSSLRSEDTAVYYCAREKWGYYGDYYYGMDVWGQGTTVTVSS
# notes: also called C10 scFv
# B14: anti-CD123 scFv-C21 (scFv)
# scFv: QSVLTQPPSASGTPGQRVTISCSGSSSNVGGNPVYWYRQVPTAAPKLLVYGHNQRPPRDPDRFSGSKSGTSASLAISGLRSEDEADYYCAAWDDSLSGWVFGGGTELTVLGGGGSGGGGSGGGGSEVQLVESGGGLVQPGRSLRLSCAASGFTFDDYAMHWVRQAPGKGLEWVSGISWNSGSIGYADSVKGRFTISRDNAKNSLYLQMNSLRAEDTALYYCAKGRYVDIVATINDAFDIWGQGTMVTVSS
# notes: also called C21 scFv
# B15: anti-CD123 scFv-C15 (scFv)
# scFv: DIQLTQSPSTLSASVGDRVTISCRASQSISSWLAWYQHKPGKAPKLLIYKTSALEDGVPSRFSGSGSGTEFTLTISSLQPDDFATYFCLHYGSYTFGQGTKVDIKGGGGSGGGGSGGGGSEVQLVESGGGLVNPGGSLRLSCEASGFTFSDYYISWIRQAPGKGLEWISYISGSSTYTDFADSVKGRFTISRDNAKNTVFLQMNSLRAEDTAVYYCARDRRGRFDPWGQGTLVTVSS
# notes: also called C15 scFv
# B16: anti-CD123 scFv-C9 (scFv)
# scFv: QSVLTQPPSASGTPGQRVTISCSGSNSNIENNYVYWYQHLPGTAPKRLIYQNNQRPSGVPDRFSGSKSGTSASLAISGLRSEDEADYYCSAWDDSLSAWVFGGGTELTVLGGGGSGGGGSGGGGSEVHLVESGGGLVQPGRSLRLSCTASGFTFGDYAMNWVRQAPGKGLEWVGFIRSKASGGTTDYAASVKGRFTISRDDSKSIAYLQMNSLKTEDTAVYYCTRALRGYSYGLFDYWGQGTLVTVSS
# notes: also called C9 scFv
# B17: anti-CD123 scFv-C2 (scFv)
# scFv: QSVVTQPPSVSAAPGQKVTISCSGSSSNIGNNYVSWYQQFPGTAPKLLIYDNNKRPSGIPDRFSGSKSGTSGTLGITGLQTGDEADYYCVTWDTSLSAGVFGGGTKLTVLGGGGSGGGGSGGGGSQITLKESGGGLVKPGGSLRLSCAASGFTFSNAWMSWVRQAPGKGLEWVGRIKSKTDGGTTDYAAPVKGRFTISRDDSKNTLYLQMNSLKTEDTAVYYCTTDPHGYYYGMDVWGQGTTVTVSS
# notes: also called C2 scFv
# B18: anti-CD123 scFv-C14 (scFv)
# scFv: DIRMTQSPSSLSASVGDRVTITCQASQDITNYLNWYHQKPGKAPKLLIYDASNLETGVPSRFSGGGSGTDFTFTISSLQSEDIGTYYCQQYDDLPLTFGGGTKVEIKGGGGSGGGGSGGGGSQVQLQESGPGLVKPSETLSLTCTVSGGSISSSSHYWGWIRQPPGKGLEWIGSIYYSGSTYYNPSLKSRVTISVDTSKNQFSLKLSSVTAADTAVYYCARRVWVWPTYGMDVWGQGTTVTVSS
# notes: also called C14 scFv
# B19: anti-CD123 scFv-C3 (scFv)
# scFv: AIQMTQSPSSLSASVGDRVTITCRASQGIGTYLAWFQQKPGKAPKSLIYAASNLQSGVPSKFSGSGSGTDFTLTISNLQPEDFATYYCQQYKGYPLTFGGGTKLEIKGGGGSGGGGSGGGGSQVQLVQSGAEVKKPGSSVKVSCKASGGTFSSYAISWVRQAPGQGLEWMGGIIPIFGTANYAQKFQGRVTITADESTSTAYMELSSLRSEDTAVYYCARDSGWFGPRYYFDYWGQGTLVTVSS
# notes: also called C3 scFv
# B20: anti-CD123 scFv-C6 (scFv)
# scFv: SYELTQPPSVSVSPGQTARIPCSGADLGDQYVSWYQHQPGQSPLLVIYEDDKRPSGIPERFSGSNSGNTATLTISGTQAMDEADYYCQAWDGNAAIFGGGTKLTVLGGGGSGGGGSGGGGSQVQLVQSGGGSVQPGGSLRLSCAASGFTFTRYSMNWVRQAPGKGLEWVSYISSSSSTIYYADSVKGRFTISRDNAKNSLYLQMNSLRDEDTAVYYCARDGYGGNSDYYGMDVWGQGTTVTVSS
# notes: also called C6 scFv
# Target: T1, CD123-Fc recombinant protein
# Test: FACS staining of CAR-T cells with CD123-Fc recombinant protein (FIG. 28)
row,Binder,binding result
1,B1,binds
2,B2,binds
3,B3,binds
4,B4,binds
5,B5,binds
6,B6,binds
7,B7,binds
8,B8,binds
9,B9,binds
10,B10,binds
11,B11,binds
12,B12,binds
13,B13,binds
14,B14,binds
15,B15,binds
16,B16,binds
17,B17,binds
18,B18,binds
19,B19,binds
20,B20,binds
